The text below walks through data of paper PMC11568366.

The test deals with SET/template-activating factor Iβ (SET/TAF-Iβ), recombinant (UniProt Q01105). Description: ITC; 300 μM reduced Cc injected (17 x 2.91 μL) into 30 μM SET/TAF-Iβ (as homodimer) in the cell, 25°C, 10 mM sodium phosphate pH 7.4; WT fitted with two cooperative binding sites, mutants with independent binding sites.

The Kd is the equilibrium constant for the complex coming apart. By stoichiometry N is commonly meant a count of units in the complex or per binding partner. Take “Y48pCMF cytochrome c phosphomimetic mutant (reduced) (from UniProt P99999 2-105) (natural protein)”: the Kd was 23 µM, the dH was -4.6 kcal/mol and the stoichiometry N was 2.2.
